# According to patent publication US20230056099:
# Target: thrombin (human alpha-thrombin) (UniProt P00734+P00734)
# Experiment: inhibition
# Details: 0.1 nM thrombin, 2 uM fibrinogen, absorbance 350 nm
# [1] = circular (5' and 3' ends joined), N = random nucleotide
Sequence,"IC50 (circular, random pool carrying fixed GGTTGGTGTGGTTGG core) [nM]",IC50 [1] [nM]
ATCTCGACTAGTCANNNNNNNNNNNNNNNNNNNNGGTTGGTGTGGTTGGNNNNNNNNNNNNNNNNNNNNTGTCTCGGAT [Lib (random circular nucleic acid)],72.1,–
ATCTCGACTAGTCATAGGGGGCGCGAACATACGCGGTTGGTGTGGTTGGCTGACAANNNNNNNTTTTGGTGTCTCGGAT [M3],–,0.18
ATCTCGACTAGTCATAGGGGGCGCGAACATACGCGGTTGGTGTGGTTGGCTGACAATACTCGTNNNNNNNGTCTCGGAT [M4],–,0.1
ATCTCGACTAGTCATAGGGGGCGCGAACATACGCGGTTGGTGTGGTTGGCTGACAATACTCGTTTTTGGTNNNNNNNNN [M5],–,0.11
ATCTCGANNNNNNNTAGGGGGCGCGAACATACGCGGTTGGTGTGGTTGGCTGACAATACTCGTTTTTGGTGTCTCGGAT [M2],–,0.36
NNNNNNNCTAGTCATAGGGGGCGCGAACATACGCGGTTGGTGTGGTTGGCTGACAATACTCGTTTTTGGTGTCTCGGAT [M1],–,0.37
